# Results taken from patent publication US8124742.
# Numbering of substitutions follows the chain as printed.
# T1: human Rh(D) antigen on Rh(D)-positive red blood cells (human, UniProt Q02161 2-417)
# T1 construct: whole, on cells; also called wt; wild type Rh(D)
# T1 sequence (looked up): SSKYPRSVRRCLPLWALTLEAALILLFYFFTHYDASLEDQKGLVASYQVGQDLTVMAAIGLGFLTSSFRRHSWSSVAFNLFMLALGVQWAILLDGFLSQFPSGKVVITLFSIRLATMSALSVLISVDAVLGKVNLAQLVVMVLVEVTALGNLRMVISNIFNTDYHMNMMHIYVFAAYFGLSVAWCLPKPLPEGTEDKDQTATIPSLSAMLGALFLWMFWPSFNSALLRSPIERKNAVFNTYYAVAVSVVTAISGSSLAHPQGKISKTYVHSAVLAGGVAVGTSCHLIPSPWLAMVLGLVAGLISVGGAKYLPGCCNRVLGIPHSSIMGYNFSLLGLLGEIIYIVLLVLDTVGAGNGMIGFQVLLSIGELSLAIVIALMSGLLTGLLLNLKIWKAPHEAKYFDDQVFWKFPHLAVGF
# B1: E1/M2 (Fab, V domains shown)
# VH: EVQLLESGGGLVKPGGSLRLSCAASGFTFSSYSMHWVRQAPGKGLEWVSSISNSNTYIYYADAVKGRFTISRDNAKNSLYLQMNSLRAEDTAVYYCARDSRYSNFLRWVRSDGMDVWGQGTTVIVSS
# VL: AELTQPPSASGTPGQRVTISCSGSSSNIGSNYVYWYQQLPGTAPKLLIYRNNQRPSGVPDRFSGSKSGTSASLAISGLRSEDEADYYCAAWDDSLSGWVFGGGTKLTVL
# notes: Fab on M13 phage; heavy chain E1 with λ light chain M2; also called E01/M02
# B2: E1/M3 (Fab, V domains shown)
# VH: B1 VH
# VL: AELTQPPSASGTPGQRVTISCSGSSSNIGSNYVYWYQQLPGTAPKLLIYRNNQRPSGVPDRFSGSKSGTSASLAISGLRSEAEADYYCAAWDDSLSAVVFGGGTKLTVLL
# notes: used both as Fab on M13 phage and as soluble γ1λ Fab; also called E01/M03; anti-epD3
# B3: E1/L4 (Fab, V domains shown)
# VH: B1 VH
# VL: AELTQPPSASGTPGQRVSISCSGSSSNIGSNTVNWYQQLPGTAPKLLISTNNQGPSGVPDRFSGSKSGTSSSLAISGLRSEAEDDYYCAAWDDTLNGVVFGGGTKLTVL
# notes: Fab on M13 phage; also called E1 with L4
# B4: E1/L3 (Fab, V domains shown)
# VH: B1 VH
# VL: AELTQPPSASGTPGQRVTISCSGSSSNIGNNHVSWYQQLPGMAPKLLIYSNGQRPSGVPDRFSGSKSGTSASLAISGLQSEDEADYYCAAWHDSLYGPVFGGGTKLTVL
# notes: Fab on M13 phage; also called E1 with L3
# B5: SH44 (Fab, V domains shown)
# VH: EVQLLESGGGVAQPGRSLRLSCVASGFSLRSYGMHWVRQAPGKGLEWVADIWFDGSNKDYADSVKGRFTISRDNSKNTLYLQMNSLRAEDTAVYYCARDWRVRAFSSGWLSAFDIWGQGTMVTVSS
# VL: AELTQSPSSLSASVGDRVIITCRASQTIPRFLNWYQQKPGKAPVLLIHSISSLQSGVPSRFSASGSGTEFTLTISSLQPEDFATYYCQQSYSNLSFGPGTTVDIRR
# notes: Fab on M13 phage
# B6: SH53 (Fab, V domains shown)
# VH: EVQLLESGGGGVQPGRSLRLSCAASGFTFNSYAMYWVRQPPGKGLEWVAAIWYDGSNKEYADFVKGRFTISRDNSKNTLSLQMNSLRDEDTAVYYCAREANLLRGWSRYYYGMDVWGQGTTVTVSS
# VL: AELQDPVVSVALGQTVRITCQGDGLRSYYASWYQQKPGQAPKLVMYGRNNRPSGIPGRFSGSSSGQTAALTITGTQAEDEADYYCQSRATSGNPVVFGGGTKLTVL
# notes: Fab on M13 phage
# B7: SH46 (Fab, V domains shown)
# VH: VQLLEESGGGVVQPGRSLRLSCAASGFTFSSYGMHWVRQAPGRGLEWVALIWYDGGNKEYADSVKGRFSISRDNSKNTLYLQVNSLRADDTAVYYCARDQRAAAGIFYYSRMDVWGQGTTVTVSS
# VL: AELTQSPSSLSASVGDRVTITCRASQYISSYLNWYQQKPGKAPNLLIYAASSLQSGVPSRFSGSGSGTDFTLTISSLQPEDFATYYCQQTYSSPSTFGPGTKVDIKR
# notes: Fab on M13 phage
# B8: SH54 (Fab, V domains shown)
# VH: EVQLLESGGGVVQPGRSLRLSCAASGFTFSRNGMHWVRQAPGKGLEWVAFIWFDGSNKYYADSVKGRFTISRDNSKNTLYLQMNSLRADDTAVYYCAREEALFRGLTRWSYGMDVWGQGTTVSVSS
# VL: B7 VL with L10M, Y27S, S29G, S30T, N44K, T90S, S93T, S95W, P99Q, D104E
# notes: Fab on M13 phage
# B9: SH47 (Fab, V domains shown)
# VH: EVQLLESGGGVVQPGRSLRLSCAASGFSFSNYAMHWVRQAPGKGLEWVAVTSFDGSIKDYADSVKGRFTISRDNSKNTLYLQMNSLRDEDTAVYYCARERGMIVVVRRRNAFDIWGQGTMVTVSS
# VL: B7 VL with Y27S, S30N, T90S, S93Y, S95R, P99Q, D104E, K106R
# notes: Fab on M13 phage
# B10: SH48 (Fab, V domains shown)
# VH: EVQLLESGGGVVQPGRSLRLSCAASGFSFSSYGMHWVRQAPGKGLEWVAVISYDGTNKYFADSVKGRFTISRDNSKKTLYLQMTSLRPEDTAVYFCANLRGEVTRRASVPLDIWGQGTMVTVSS
# VL: B7 VL
# notes: Fab on M13 phage
# B11: SH41 (Fab, V domains shown)
# VH: EVQLLESGGGVVQPGRSLRLSCAASGFTFSTYGMHWVRQAPGKGLEWVAVIWFDGSNKEYADSVKGRFTISRDNSKNTLYLQMNSLRAEDTAVYYCAREEVVRGVILWSRKFDYWGQGTLVTVSS
# VL: AELTQSPSSLSASVGDRVTITCRASQNIRRSLNWYQHKPGRAPRLLIYAASTLQSGVPSRFRGSGSGTDFTLTINSLQPADFATYYCQQSSNTPWTFGHGTKVEIKR
# notes: Fab on M13 phage
# B12: SH49 (Fab, V domains shown)
# VH: EVQLLESGGGVVQPGRSLRLACAASGFSFRSYGMHWVRQAPGRGLEWVAFTWFDGSNKYYVDSVKGRFTISRDNSKNTLYLEMNSLRVDDTAVYYCAREASMLRGISRYYYAMDVWGPGTTVTVSS
# VL: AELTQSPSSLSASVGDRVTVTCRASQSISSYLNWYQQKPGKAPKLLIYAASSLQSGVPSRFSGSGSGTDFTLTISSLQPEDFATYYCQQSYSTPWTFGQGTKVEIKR
# notes: Fab on M13 phage
# B13: SH51 (Fab, V domains shown)
# VH: B12 VH
# VL: AELTQSPSFLSASVGDRVTITCRASQGIRSYLAWYQQKPGKAPKLLIYAASTLQSGVPSRFSGSGSGTEFTLTISSLQPEDFATYYCQQLNNYPPFTFGPGTKVDIKR
# notes: Fab on M13 phage
# B14: SH55 (Fab, V domains shown)
# VH: EVQLLESGGGVVQPGRSLRLSCVVSGFTFNNYGMHWVRQAPGKGLEWVAVIWFDGSNKYYADSVKGRFTISRDNSKNTLYLQMNSLRAEDTAVYYCARENQIKLWSRYLYYFDYWGQGTLVTVSS
# VL: AELTQPPSASGTPGQRVTISCSGSSSNIGSKYVYWYQQLPGTAPKLLIYSNNQRPSGVPDRFSAFKSGTSASLAITGLQAEDEANYYCQSYDSGLSGWVFGGGTKLTVL
# notes: Fab on M13 phage
# Target: T1, human Rh(D) antigen on Rh(D)-positive …
# Assay: agglutination, anti-M13
row,Binder,binding result
1,B1,binds
2,B2,binds
3,B3,binds
4,B4,binds

# Target: T1, human Rh(D) antigen on Rh(D)-positive …
# Assay: agglutination, anti-M13
# Remark: another data set of the same source
# Procedure: The binding of anti-Rh(D) Fab/phage or soluble Fab molecules to normal or partial Rh(D) antigens was assessed by indirect agglutination assays as described (Siegel et al., 1994, Blood 83:2334; Siegel et al., 1997, J. Immunol. Meth. 206: 73). […] Following a one-hour incubation at 37° C., the RBCs were washed 3 times with 2 ml of cold PBS to remove unbound antibody. The resulting RBC pellets were resuspended in 100 μl of a 10 μg/ml solution of sheep anti-M13 antibody (5 Prime-3 Prime, Boulder, Colo.) for Fab/phage experiments or goat anti-human κ or λ light chain antibody (Tago, Burlingame, Calif.) for $\gamma_1\kappa$ or $\gamma_1\lambda$ soluble Fab experiments, respectively. The RBC suspensions were transferred to the round-bottomed wells of a 96-well microplate and left undisturbed for 2 hours. Negative reactions show sharp ~2 millimeter diameter RBC spots whereas the RBCs in agglutinated wells form a thin carpet coating the entire floor of the well (Siegel et al., 1997, J. Immunol. Meth. 206:73). Agglutination titers for recombinant antibodies were determined by performing serial 2-fold dilutions in 1% BSA/PBS.
# Fifty-six randomly chosen colonies were selected, and monoclonal Fab/phage preparations were separately produced from each of these individual colonies, using the methods described herein in Example 1. Rh(D) specificity was determined by indirect agglutination using anti-M13 antibody, as described herein in Examples 1 and 2.
row,Binder,binding result
1,B5,binds
2,B6,binds
3,B7,binds
4,B8,binds
5,B9,binds
6,B10,binds
7,B11,binds
8,B12,binds
9,B13,binds
10,B14,binds
